Response data for one molecule are collected here from PMC6613885.

This experiment deals with GST-LC3B, Q9GZQ8. As to the kind of experiment: GST-pulldown, in vitro-translated 35S-labelled protein, autoradiography quantification. To be noted: chain shown with the change; Means ± SD of 3 independent experiments; parent: est. 1.0; read off a plot.

B1: Myc-tagged ATG14, full-length, in vitro translated, Q6ZNE5 F64A; F67A; W435A; L438A (protein)
chain: MASPSGKGARALEAPGCGPRPLARDLVDSVDDAEGLYVAVERCPLCNTTRRRLTCAKCVQSGDAVYADGRDRERFIDKKERLSRLKSKQEEFQKEVLKAMEGKWITDQLRWKIMSCKMRIEQLKQTICKGNEEMEKNSEGLLKTKEKNQKLYSRAQRHQEKKEKIQRHNRKLGDLVEKKTIDLRSHYERLANLRRSHILELTSVIFPIEEVKTGVRDPADVSSESDSAMTSSTVSKLAEARRTTYLSGRWVCDDHNGDTSISITGPWISLPNNGDYSAYYSWVEEKKTTQGPDMEQSNPAYTISAALCYATQLVNILSHILDVNLPKKLCNSEFCGENLSKQKFTRAVKKLNANILYLCFSQHVNLDQLQPLHTLRNLMYLVSPSSEHLGRSGPFEVRADLEESMEFVDPGVAGESDESGDERVSDEETDLGTDAENAPSPRFCDIPSQSVEVSQSQSTQASPPIASSSAGGMISSAAASVTSWFKAYTGHR
B1: the response was determined as 0.6 % binding.
